Kd data for one substance are collected here from PMC4451130.

pKd: −log10 of the molar value.

In assay [1] the target is Glu-plasminogen (Plg) (human). Kind of assay: ELISA.
For assay [2], the target named is Fibrinogen (FG), human plasma, plasminogen-depleted (human) (UniProt P02671). Kind of assay: ELISA.
UniProt P02671, sequence (P02671 36-866, chain 1 of 3): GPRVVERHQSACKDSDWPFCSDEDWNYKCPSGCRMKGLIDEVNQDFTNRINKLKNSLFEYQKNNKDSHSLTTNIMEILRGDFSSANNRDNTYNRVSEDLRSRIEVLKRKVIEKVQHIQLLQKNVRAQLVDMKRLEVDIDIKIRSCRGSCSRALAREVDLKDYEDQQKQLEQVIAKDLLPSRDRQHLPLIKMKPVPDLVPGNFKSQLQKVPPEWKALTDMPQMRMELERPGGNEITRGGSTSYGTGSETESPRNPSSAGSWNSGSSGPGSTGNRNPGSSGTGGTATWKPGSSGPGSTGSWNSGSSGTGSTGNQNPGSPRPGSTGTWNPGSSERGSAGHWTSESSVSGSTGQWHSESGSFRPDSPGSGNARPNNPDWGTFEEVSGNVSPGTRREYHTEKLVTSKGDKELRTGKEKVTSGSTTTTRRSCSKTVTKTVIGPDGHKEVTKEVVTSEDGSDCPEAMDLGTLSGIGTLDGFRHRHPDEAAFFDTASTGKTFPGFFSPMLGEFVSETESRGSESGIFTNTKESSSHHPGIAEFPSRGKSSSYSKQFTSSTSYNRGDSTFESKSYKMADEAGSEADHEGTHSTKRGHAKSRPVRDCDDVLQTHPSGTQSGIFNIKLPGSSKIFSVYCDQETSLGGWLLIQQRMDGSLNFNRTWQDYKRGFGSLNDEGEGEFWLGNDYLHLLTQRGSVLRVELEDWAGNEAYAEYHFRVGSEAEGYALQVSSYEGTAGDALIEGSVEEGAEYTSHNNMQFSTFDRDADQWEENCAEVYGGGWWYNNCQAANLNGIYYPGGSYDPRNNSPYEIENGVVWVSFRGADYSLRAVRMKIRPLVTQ
UniProt P02671, sequence (P02675 45-491, chain 2 of 3, further chain): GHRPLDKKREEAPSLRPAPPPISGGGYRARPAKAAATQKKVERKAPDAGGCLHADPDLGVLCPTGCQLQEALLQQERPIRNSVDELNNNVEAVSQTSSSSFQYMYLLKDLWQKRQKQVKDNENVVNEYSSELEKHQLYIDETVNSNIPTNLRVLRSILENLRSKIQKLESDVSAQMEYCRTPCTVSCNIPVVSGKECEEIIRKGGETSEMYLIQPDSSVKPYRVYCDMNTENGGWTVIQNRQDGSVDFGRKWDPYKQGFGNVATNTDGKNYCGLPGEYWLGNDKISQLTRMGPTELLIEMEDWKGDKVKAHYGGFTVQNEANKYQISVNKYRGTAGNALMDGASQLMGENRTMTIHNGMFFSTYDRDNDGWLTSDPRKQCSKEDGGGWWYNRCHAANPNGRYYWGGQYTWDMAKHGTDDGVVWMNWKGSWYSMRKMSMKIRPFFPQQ
UniProt P02671, sequence (P02679 27-453, chain 3 of 3, further chain): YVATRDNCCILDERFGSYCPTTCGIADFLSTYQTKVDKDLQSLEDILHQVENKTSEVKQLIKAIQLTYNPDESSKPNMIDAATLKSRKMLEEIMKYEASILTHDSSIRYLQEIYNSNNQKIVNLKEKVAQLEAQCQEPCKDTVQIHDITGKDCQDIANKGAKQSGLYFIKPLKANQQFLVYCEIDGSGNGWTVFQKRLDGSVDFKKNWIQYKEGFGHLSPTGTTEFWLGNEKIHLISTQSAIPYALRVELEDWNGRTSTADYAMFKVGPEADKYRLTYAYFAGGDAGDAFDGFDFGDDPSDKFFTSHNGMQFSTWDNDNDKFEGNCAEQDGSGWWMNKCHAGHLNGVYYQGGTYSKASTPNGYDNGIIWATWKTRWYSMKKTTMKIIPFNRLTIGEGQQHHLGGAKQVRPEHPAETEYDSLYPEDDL

Glu-plasminogen (Plg) (human), sequence (P00747 20-810): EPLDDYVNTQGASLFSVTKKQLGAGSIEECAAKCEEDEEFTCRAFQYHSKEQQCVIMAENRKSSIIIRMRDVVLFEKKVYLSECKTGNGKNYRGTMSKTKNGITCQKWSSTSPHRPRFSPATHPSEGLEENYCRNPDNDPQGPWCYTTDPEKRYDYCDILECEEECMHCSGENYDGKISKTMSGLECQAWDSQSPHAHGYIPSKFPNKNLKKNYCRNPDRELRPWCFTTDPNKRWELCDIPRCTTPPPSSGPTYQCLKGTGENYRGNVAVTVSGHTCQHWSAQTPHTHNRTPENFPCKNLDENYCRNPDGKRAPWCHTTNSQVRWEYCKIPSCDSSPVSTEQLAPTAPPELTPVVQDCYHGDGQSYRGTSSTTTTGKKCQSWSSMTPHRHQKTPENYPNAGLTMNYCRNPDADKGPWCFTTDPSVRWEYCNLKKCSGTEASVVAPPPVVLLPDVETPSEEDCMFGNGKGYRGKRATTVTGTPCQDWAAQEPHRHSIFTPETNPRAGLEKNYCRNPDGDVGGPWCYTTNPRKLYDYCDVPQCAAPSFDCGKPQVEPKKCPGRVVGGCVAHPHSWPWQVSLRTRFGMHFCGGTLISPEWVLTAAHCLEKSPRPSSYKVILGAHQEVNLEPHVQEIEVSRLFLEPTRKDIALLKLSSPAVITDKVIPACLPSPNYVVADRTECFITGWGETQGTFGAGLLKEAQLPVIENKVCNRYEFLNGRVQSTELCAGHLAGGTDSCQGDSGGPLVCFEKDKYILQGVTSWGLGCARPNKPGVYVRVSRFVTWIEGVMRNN

As to “Biotin-conjugated PTX3 (b-PTX3) (from UniProt P26022 18-381) (natural protein)”, the pKd is 7.18 in assay [1] and 7.51 in assay [2].
